In paper PMC6293278:

Biological target: Taxol-stabilized microtubules (polymerized purified tubulin) (UniProt P02550)
Assay: Taxol-stabilized microtubule co-sedimentation assay
Conditions: 3:1 MT:MAP1S LC ratio; MAP1S LC pre-incubated with CDKL5 (WT according to the lane labels of panel E; the key of panel F prints CDKL5 KD); n = 3 technical …; parent: est. 13; read off a plot

- other: Soluble MAP1S LC (%): 4.2%
Substance: Strep(II)-MAP1S LC WT (microtubule-associated protein 1S light chain) (from UniProt P0C5W1) S786A; S812A
